Experimental data as given in US6074851A, “Catalytic macro molecules having cdc25B like activity” (Pharmacia & UpJohn Company, priority 1997, dated 2000).

B1: human cdc25B (364-529) VHR-like catalytic domain, GST-free, GIQ-cdc25B (364-529), SEQ ID NO: 24 (Homo sapiens) (protein)
chain: HDEIENLLDSDHRELIGDYSKAFLLQTVDGKHQDLKYISPETMVALLTGKFSNIVDKFVIVDCRYPYEYEGGHIKTAVNLPLERDAESFLLKSPIAPCSLDKRVILIFHCEFSSERGPRMCRFIRERDRAVNDYPSLYYPEMYILKGGYKEFFPQHPNFCEPQDYR
B2: human cdc25B (356-556) minimal catalytic domain, Val356-Arg556, GST-free, Form II, SEQ ID NO: 9 (Homo sapiens) (protein)
chain: VLRSKSLCHDEIENLLDSDHRELIGDYSKAFLLQTVDGKHQDLKYISPETMVALLTGKFSNIVDKFVIVDCRYPYEYEGGHIKTAVNLPLERDAESFLLKSPIAPCSLDKRVILIFHCEFSSERGPRMCRFIRERDRAVNDYPSLYYPEMYILKGGYKEFFPQHPNFCEPQDYRPMNHEAFKDELKTFRLKTRSWAGERSR
B3: near full length GST-cdc25B (31-566) fusion protein (Homo sapiens) (protein)
chain: GLLLGSHGLLGSPVRAAASSPVTTLTQTMHDLAGLGSRSRLTHLSLSRRASESSLSSESSESSDAGLCMDSPSPMDPHMAEQTFEQAIQAASRIIRNEQFAIRRFQSMPVRLLGHSPVLRNITNSQAPDGRRKSEAGSGAASSSGEDKENDGFVFKMPWKPTHPSSTHALAEWASRREAFAQRPSSAPDLMCLSPDRKMEVEELSPLALGRFSLTPAEGDTEEDDGFVDILESDLKDDDAVPPGMESLISAPLVKTLEKEEEKDLVMYSKCQRLFRSPSMPCSVIRPILKRLERPQDRDTPVQNKRRRSVTPPEEQQEAEEPKARVLRSKSLCHDEIENLLDSDHRELIGDYSKAFLLQTVDGKHQDLKYISPETMVALLTGKFSNIVDKFVIVDCRYPYEYEGGHIKTAVNLPLERDAESFLLKSPIAPCSLDKRVILIFHCEFSSERGPRMCRFIRERDRAVNDYPSLYYPEMYILKGGYKEFFPQHPNFCEPQDYRPMNHEAFKDELKTFRLKTRSWAGERSRRELCSRLQDQ
B4: human cdc25B Mutein3, cdc25B (356-566) with Arg556Lys/Arg557Lys, SEQ ID NO: 23 (Homo sapiens; R570K/R571K) (protein)
chain: VLRSKSLCHDEIENLLDSDHRELIGDYSKAFLLQTVDGKHQDLKYISPETMVALLTGKFSNIVDKFVIVDCRYPYEYEGGHIKTAVNLPLERDAESFLLKSPIAPCSLDKRVILIFHCEFSSERGPRMCRFIRERDRAVNDYPSLYYPEMYILKGGYKEFFPQHPNFCEPQDYRPMNHEAFKDELKTFRLKTRSWAGERSKKELCSRLQDQ

Tests used:
[1] = target: GST-cdc25B (residues 355-566) fusion protein (Homo sapiens, UniProt P30305); conditions: PNPP as substrate, 37° C.; cited from earlier work
[2] = substrate: O=[N+]([O-])c1ccc(OP(=O)(O)O)cc1; assay: purified protein, by the assay type; conditions: other: PNPP as substrate, 25° C., pH 8.0

| Molecule | Km [1] [mM] | Km [2] [mM] | Vmax [2] [nmol/min/mg] |
| --- | --- | --- | --- |
| O=[N+]([O-])c1ccc(OP(=O)(O)O)cc1 [PNPP, p-nitrophenyl phosphate] | 16.6 | – | – |
| B1 | – | 28 | 250 |
| B2 | – | 2.0 | – |
| B3 | – | 12.0 | – |
| B4 | – | 2.0 | – |
